In patent publication US20210275684A1 (MONOJUL, published 2021):

B1: AS04498 antibody (affinity matured, full length IgG) (antibody, V domains shown)
VH: EVQLVQSGAEVKKPGASVKVSCKASGYTFTYYAMHWVRQAPGQRLEWMGWINAGNGNTKYSQKFQGRVTITRDTSASTAYMELSSLRSEDTAVYYCARDISYGSFDYWGQGTLVTVSS
VL: SSELTQDPAVSVALGQTVRITCQGDSLRSNYANWYQQKPGQAPVLVIYGQFNRPSGIPDRFSGSSSGNTASLTITGAQAADEADYYCDSRVSTGIHVVFGGGTKLTVLG
notes: also called ASO4498; AM
B2: M909 IgG (parent monoclonal antibody m909, full length IgG) (antibody, V domains shown, not shown: a dimerising Fc or GST)
VH: EVQLVQSGAEVKKPGASVKVSCKASGYTFTSYAMHWVRQAPGQRLEWMGWINAGNGNTKYSQKFQGRVTITRDTSASTAYMELSSLRSEDTAVYYCARDISYGSFDYWGQGTLVTVSS
VL: SSELTQDPAVSVALGQTVRITCQGDSLRSNYANWYQQKPGQAPVLVIYGQNNRPSGIPDRFSGSSSGNTASLTITGAQAADEADYYCDSRVSTGNHVVFGGGTKLTVLG
notes: also called m909 antibody
B3: Clone H (affinity matured antibody from the combinatorial library) (Fab, V domains shown)
VH: EVQLVQSGAEVKKPGASVKVSCKASGYTFTIYAMHWVRQAPGQRLEWMGWINAGNGNTKYSQKFQGRVTITRDTSASTAYMELSSLRSEDTAVYYCARDISYGSFDYWGQGTLVTVSS
VL: SSELTQDPAVSVALGQTVRITCQGDSLRSNYANWYQQKPGQAPVLVIYGQFNRPSGIPDRFSGSSSGNTASLTITGAQAADEADYYCDSRVSTGIHVVFGGGTKLTVLG
notes: Format in the screen not expressly stated
B4: Clone J (affinity matured antibody from the combinatorial library) (Fab, V domains shown)
VH: EVQLVQSGAEVKKPGASVKVSCKASGYTFTYYAMHWVRQAPGQRLEWMGWINAGNGFTKYSQKFQGRVTITRDTSASTAYMELSSLRSEDTAVYYCARDISYGSFDYWGQGTLVTVSS
VL: SSELTQDPAVSVALGQTVRITCQGDSLRSNYANWYQQKPGQAPVLVIYGQNNRPSGIPDRFSGSSSGNTASLTITGAQAADEADYYCDSRVSTGIHVVFGGGTKLTVLG
notes: as for B3
B5: Clone G (affinity matured antibody from the combinatorial library) (Fab, V domains shown)
VH: EVQLVQSGAEVKKPGASVKVSCKASGYTFTIYAMHWVRQAPGQRLEWMGWINAGNGNTKYSQKFQGRVTITRDTSASTAYMELSSLRSEDTAVYYCARDISYGSFDYWGQGTLVTVSS
VL: SSELTQDPAVSVALGQTVRITCQGDSLRSNYANWYQQKPGQAPVLVIYGQFNLPSGIPDRFSGSSSGNTASLTITGAQAADEADYYCDSRVSTGIHVVFGGGTKLTVLG
notes: as for B3
B6: Clone F (affinity matured antibody from the combinatorial library) (Fab, V domains shown)
VH: EVQLVQSGAEVKKPGASVKVSCKASGYTFTYYAMHWVRQAPGQRLEWMGWINAGNGNTKYSQKFQGRVTITRDTSASTAYMELSSLRSEDTAVYYCARDISYGSFDYWGQGTLVTVSS
VL: SSELTQDPAVSVALGQTVRITCQGDSLRSNYANWYQQKPGQAPVLVIYGQFNLPSGIPDRFSGSSSGNTASLTITGAQAADEADYYCDSRVSTGNHVVFGGGTKLTVLG
notes: as for B3
B7: Clone O (affinity matured antibody from the combinatorial library) (Fab, V domains shown)
VH: EVQLVQSGAEVKKPGASVKVSCKASGYTFTYYAMHWVRQAPGQRLEWMGWINAGNGNTKYSQKFQGRVTITRDTSASTAYMELSSLRSEDTAVYYCARDISYGSFDYWGQGTLVTVSS
VL: SSELTQDPAVSVALGQTVRITCQGDSLRSNYANWYQQKPGQAPVLVIYGQNNLPSGIPDRFSGSSSGNTASLTITGAQAADEADYYCDSRVSTGNHVVFGGGTKLTVLG
notes: as for B3
B8: Clone B (affinity matured antibody from the combinatorial library) (Fab, V domains shown)
VH: EVQLVQSGAEVKKPGVSVKVSCKASGYTFTYYAMHWVRQAPGQRLEWMGWINAGNGFTKYSQKFQGRVTITRDTSASTAYMELSSLRSEDTAVYYCARDISYGSFDYWGQGTLVTVSS
VL: SSELTQDPAVSVALGQTVRITCQGDSLRSNYANWYQQKPGQAPVLVIYGQFNLPSGIPDRFSGSSSGNTASLTITGAQAADEADYYCDSRVSTGIHVVFGGGTKLTVLG
notes: A16V was placed on the heavy chain; Format in the screen not expressly stated
B9: Clone I (affinity matured antibody from the combinatorial library) (Fab, V domains shown)
VH: EVQLVQSGAEVKKPGASVKVSCKASGYTFTIYAMHWVRQAPGQRLEWMGWINAGNGNTKYSQKFQGRVTITRDTSASTAYMELSSLRSEDTAVYYCARDISYGSFDYWGQGTLVTVSS
VL: SSELTQDPAVSVALGQTVRITCQGDSLRSNYANWYQQKPGQAPVLVIYGQNNLPSGIPDRFSGSSSGNTASLTITGAQAADEADYYCDSRVSTGIHVVFGGGTKLTVLG
notes: as for B3
B10: Clone A (affinity matured antibody from the combinatorial library) (Fab, V domains shown)
VH: EVQLVQSGAEVKKPGASVKVSCKASGYTFTYYAMHWVRQAPGQRLEWMGWINAGNGFTKYSQKFQGRVTITRDTSASTAYMELSSLRSEDTAVYYCARDISYGSFDYWGQGTLVTVSS
VL: SSELTQDPAVSVALGQTVRITCQGDSLRSNYANWYQQKPGQAPVLVIYGQFNLPSGIPDRFSGSSSGNTASLTITGAQAADEADYYCDSRVSTGIHVVFGGGTKLTVLG
notes: as for B3
B11: Clone C (affinity matured antibody from the combinatorial library) (Fab, V domains shown)
VH: EVQLVQSGAEVKKPGASVKVSCKASGYTFTYYAMHWVRQAPGQRLEWMGWINAGNGFTKYSQKFQGRVTITRDTSASTAYMELSSLRSEDTAVYYCARDISYGSFDYWGQGTLVTVSS
VL: SSELTQDPAVSVALGQTVRITCQGDSLRSNYANWYQQKPGQAPVLVIYGQFNRPSGIPDRFSGSSSGNTASLTITGAQAADEADYYCDSRVSTGIHVVFGGGTKLTVLG
notes: as for B3
B12: Clone M (affinity matured antibody from the combinatorial library) (Fab, V domains shown)
VH: EVQLVQSGAEVKKPGASVKVSCKASGYTFTIYAMHWVRQAPGQRLEWMGWINAGNGNTKYSQKFQGRVTITRDTSASTAYMELSSLRSEDTAVYYCARDISYGSFDYWGQGTLVTVSS
VL: SSELTQDPAVSVALGQTVRITCQGDSLRSNYANWYQQKPGQAPVLVIYGQFNLPSGIPDRFSGSSSGNTASLTITGAQAADEADYYCDSRVSTGNHVVFGGGTKLTVLG
notes: as for B3
B13: Clone L (affinity matured antibody from the combinatorial library) (Fab, V domains shown)
VH: EVQLVQSGAEVKKPGASVKVSCKASGYTFTIYAMHWVRQAPGQRLEWMGWINAGNGNTKYSQKFQGRVTITRDTSASTAYMELSSLRSEDTAVYYCARDISYGSFDYWGQGTLVTVSS
VL: SSELTQDPAVSVALGQTVRITCQGDSLRSNYANWYQQKPGQAPVLVIYGQFNRPSGIPDRFSGSSSGNTASLTITGAQAADEADYYCDSRVSTGNHVVFGGGTKLTVLG
notes: as for B3
B14: Clone D (affinity matured antibody from the combinatorial library) (Fab, V domains shown)
VH: EVQLVQSGAEVKKPGASVKVSCKASGYTFTYYAMHWVRQAPGQRLEWMGWINAGNGNTKYSQKFQGRVTITRDTSASTAYMELSSLRSEDTAVYYCARDISYGSFDYWGQGTLVTVSS
VL: SSELTQDPAVSVALGQTVRITCQGDSLRSNYANWYQQKPGQAPVLVIYGQFNLPSGIPDRFSGSSSGNTASLTITGAQAADEADYYCDSRVSTGIHVVFGGGTKLTVLG
notes: as for B3
B15: Clone P (affinity matured antibody from the combinatorial library) (Fab, V domains shown)
VH: EVQLVQSGAEVKKPGASVKVSCKASGYTFTIYAMHWVRQAPGQRLEWMGWINAGNGFTKYSQKFQGRVTITRDTSASTAYMELSSLRSEDTAVYYCARDISYGSFDYWGQGTLVTVSS
VL: SSELTQDPAVSVALGQTVRITCQGDSLRSNYANWYQQKPGQAPVLVIYGQNNRPSGIPDRFSGSSSGNTASLTITGAQAADEADYYCDSRVSTGNHVVFGGGTKLTVLG
notes: as for B3

Assays:
[1] = molecular target: T1, recombinant human folate receptor beta (FRβ), residues 22 to 236, with ADPG at the N-terminus and five … (human, UniProt P14207 22-236); experiment: SPR, Biacore T200, antibody captured through Fc, hFRβ as analyte
T1 construct: also called hFRβ; recombinant FRβ
Method: (§1) To begin the analysis of the affinity matured antibodies, AS04498 was selected for further analysis. Antibody affinity to antigen protein was determined using a Surface Plasmon Resonance (SPR) biosensor, Biacore T200 (GE Healthcare). Antibody was immobilized on the sensor chip through Fc capture method. Antigen protein was used as the analyte. The data of dissociation (kd) and association (k0) rate constants were obtained using Biacore T200 evaluation software. The equilibrium dissociation constants (KD) were calculated from the ratio of kd over k0.

[2] = molecular target: T1, recombinant human folate receptor beta …; experiment: SPR, Biacore T200; affinity relative to the chimeric IgG control
Method: as §1

[3] = molecular target: T1, recombinant human folate receptor beta …; experiment: affinity measurement of full length IgG on recombinant FRβ (FIGS. 6A-6C, summarised in Table 5); reference: Chimeric IgG. The sentence says 'higher' of the KD, but the KD is lower, so the affinity is higher
Method: as §1

[4] = molecular target: T1, recombinant human folate receptor beta …; experiment: combinatorial library screen: ELISA on coated antigen, then affinity (dissociation rate) ranking

T1 sequence (P14207 other isoform, or with tags, fused parts or gaps): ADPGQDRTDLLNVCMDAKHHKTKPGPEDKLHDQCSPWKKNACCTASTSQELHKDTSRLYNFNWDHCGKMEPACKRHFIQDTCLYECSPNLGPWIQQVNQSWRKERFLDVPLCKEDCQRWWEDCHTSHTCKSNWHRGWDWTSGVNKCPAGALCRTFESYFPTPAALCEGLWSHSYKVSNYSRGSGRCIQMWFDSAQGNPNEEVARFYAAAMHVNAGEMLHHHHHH

Binder | binding result [4] | also measured
B1 |  | Kd [1]: 2.5 nM; koff [1]: 0.000144 s⁻¹; kon [1]: 57700 M⁻¹ s⁻¹; Fold Increase [2]: 38 fold; fold change of KD against the chimeric IgG control [3]: 38 fold
B2 |  | Kd [1]: 92.4 nM; koff [1]: 0.00592 s⁻¹; kon [1]: 64100 M⁻¹ s⁻¹
B3 | binds | 
B4 | binds | 
B5 | binds | 
B6 | binds | 
B7 | binds | 
B8 | binds | 
B9 | binds | 
B10 | binds | 
B11 | binds | 
B12 | binds | 
B13 | binds | 
B14 | binds | 
B15 | binds | 
